The supplement of paper PMC9170038

System: MS2 coat protein
Assay: apparent KD of MS2 coat protein; designed switch direction (-1 OFF switch, 1 ON switch): -1; higher = weaker reporter binding
Method in brief: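 Stalled E. coli RNA polymerase transcribed designed RNA switches on Illumina chips, which were then titrated with SNAP-549-labelled MS2 coat protein, doubling from 0.7 or 1.5 nM to 3 µM. Steps lasted from 0.8–1.5 h at the lowest concentration to 10–20 min at the highest. The apparent KD is each design's median over clusters of curve-fitted normalised fluorescence.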

[1] = Eterna round: R95, input ligand: microRNA oligo, concentration not stated
[2] = input ligand: microRNA oligo, concentration not stated
[3] = Eterna round: R95, input ligand: FMN 200 uM
[4] = Eterna round: R95, input ligand: none

Sequence | apparent KD of MS2 coat protein (input ligand: FMN 200 uM) [nM] | apparent KD of MS2 coat protein (input ligand: none) [nM] | apparent KD of MS2 coat protein [1] [nM] | other results
CCUCUACAUGAGGAUCACCCAUGUGAGGAUAUCCUGCGAGGAUCAAAAGAUCCUCGUGGGAGAAGGCAUAUGAU [Omei Ex1 A3] (Eterna round: R97, puzzle: Exclusion 1) | 36.5 | 26.6 | – | –
UUUUAACAUGAGGAUCACCCAUGUGAGGAUAUCGAAAUUUAUAUUUAUAUUAAUAUUACGAGAAGGCACAUUUU [JMF 82] (puzzle: Exclusion 1) | – | – | 89.6 | –
UUGUAACGAUUAGGAUAUUAUUAAUAGAACUUUAUGAUAUACAUGAGGAUCACCCAUGUUACUUUUAAGAAGGAAUCGUAUUAU [JR_ExcNG2_Sub091] (Eterna round: R96, puzzle: Exclusion NG 2) | – | – | – | apparent KD of MS2 coat protein [2]: 17 nM
GUCAGACGAGGAUAUGAUAAUUAAUACAUGAGGAUCACCCAUGUAAUACUGAUCCAUGGAUCAGAAGGCGUCUGAC [E5/4-A4] (Eterna round: R97, puzzle: Exclusion 5) | 42.7 | 17.6 | – | –
CAGUACUACAAGCUAAGGGACAUGAGGAUCACCCAUGUUCGUCUUAUUGAUCUAGGUACGCUGACGUACCUAGAUCU [JL-sv1-2.18 Brourd mod] (puzzle: Sensor v3, turn-off variant 1) | – | – | 20.8 | apparent KD of MS2 coat protein [3]: 13.6 nM; apparent KD of MS2 coat protein [4]: 13.8 nM
GCACGGUUGGUAGGAUAUCCUUGCGAUUAGCAAGGAGAAGGACCACAUGAGGAUCACCCAUGUACCUCAAUAAUCCUUCCGUGC [Eli exng1 - 027] (Eterna round: R96, puzzle: Exclusion NG 1) | 12.8 | 14.7 | – | apparent KD of MS2 coat protein [2]: 12.1 nM
GGUCCUGAUGAUUUCCUAGACAUGAGGAUCACCCAUGUUUAUUUAUUUUGUUUUUAGCUUUUUGGUCGUCAAUAAUA [Mod-Hoo-honey-4] (Eterna round: R97, puzzle: Sensor, turn-off variant 1) | 100 | 99.6 | – | –
CUAGAUCUUCGGAUCUAGUACAUGAGGAUCACCCAUGUUACGAGUUGAUUUUCAUACAAGCUUUUUGCUCGUCUUAU [Sensor v3 - Turn-off variant 1 - 28] (puzzle: Sensor v3, turn-off variant 1) | – | – | 84.4 | apparent KD of MS2 coat protein [3]: 134 nM; apparent KD of MS2 coat protein [4]: 153 nM
UGAGUGCUGCGAGGAUAUACAUGAGGAUCACCCAUGUAAUCGUGUGAGGCAAAGCCUCACACGAAGUAGAAGGCGCAGUACUCA [Mat - Exclusion NG 2 - Mod of JL - D18] (Eterna round: R96, puzzle: Exclusion NG 2) | 15.7 | 18.6 | – | apparent KD of MS2 coat protein [2]: 12.4 nM
AAAUUCAGAGGAUAUGCGCAUAGAUAAGACUUUUUUUCUUAACAUGAGGAUCACCCAUGUAGAAGGCUGUAAAA [Ex2 #60] (Eterna round: R97, puzzle: Exclusion 2) | 20.5 | 18.4 | – | –
GCUUGUGGGCAAGGAUAUCCUACGUUGUUCUGGUUCGUGUCUGUCACAUGAGGAUCACCCAUGUGGGAGAAGGUGCAUUUGGGU [Design 59] (Eterna round: R96, puzzle: Exclusion NG 2) | 17.9 | 18 | – | apparent KD of MS2 coat protein [2]: 13.8 nM
UGAGAACUGCGAGGAUAUACAUGAGGAUCACCCAUGUAAUAGUGUGAGGCUUUGCCUCACACAAUGUAGAAGGCGCAGUUCUCU [Mat - Exclusion NG 2 - Mod of JL - D7] (Eterna round: R96, puzzle: Exclusion NG 2) | 18.4 | 11.9 | – | apparent KD of MS2 coat protein [2]: 10.1 nM
CUGGUCCGAGGAUAUAUUAAGUGAAACAUGAGGAUCACCCAUGUAAUUUGAUGGAUGUAAAUAGAAGGCGGACUAG [JL-ex5-3.09] (puzzle: Exclusion 5) | – | – | 37.1 | apparent KD of MS2 coat protein [3]: 29.4 nM; apparent KD of MS2 coat protein [4]: 43.8 nM
UUUUAAUAUGAAGGAUAUACUUAACAUGAGGAUCACCCAUGUGGUGUUGUGAGUGAGUGAGUUUAGUAGAAGGUCAAUUAUUUU [JMF's solution 25] (Eterna round: R96, puzzle: Exclusion NG 2) | 1020 | 405 | – | apparent KD of MS2 coat protein [2]: 249 nM
AGUAACAGAGGAUAUACUGUUUUAUGUGUUUGUUAUUUUAAACAUGAGGAUCACCCAUGUAGAAGGCUGAAUAA [JMF 83] (puzzle: Exclusion 2) | – | – | 21.4 | –
CUUAGACAUGAGGAUCACCCAUGUGAGGAUAUGAUGCGAUCGUGCUGACAUGAUCGCAUCAGAAGGCACAAAUG [Mat - Mod of JL D65] (puzzle: Exclusion 1) | – | – | 146 | –

Sequence | apparent KD of MS2 coat protein (input ligand: FMN 200 uM) [nM] | apparent KD of MS2 coat protein (input ligand: none) [nM] | apparent KD of MS2 coat protein [1] [nM] | other results
AAGAAGCAAGGAUAUACAACGGGCCACAGAGCCGAAGGGCAACAUGAGGAUCACCCAUGUAGAAGGUGCGUAAC [Lecebeqube] (puzzle: Exclusion 2) | – | – | 30.3 | apparent KD of MS2 coat protein [3]: 149 nM; apparent KD of MS2 coat protein [4]: 28.2 nM
AGAUGUACCUAGGAUAUCCGUCGAAUUGGACUAGGAGAAGGAGGUACAUGAGGAUCACCCAUGUAUGACUCCUG [Bemabice] (puzzle: Exclusion 6) | – | – | 10.1 | –
GUUUCACAUGAGGAUCACCCAUGUGAGGAUAUGGACUUUUUGGCAAUAGUCGUUGGGUUCAGAAGGCGCGUGAU [JR_Exc1_Sub006] (Eterna round: R97, puzzle: Exclusion 1) | 45.2 | 49.4 | – | –
ACCUCACAUGAGGAUCACCCAUGUCAGGAUAUUCAAACAGGCGAAACUCCGCCUUCUCGAAGAAGGGACAUUAA [Israon] (puzzle: Exclusion 1) | – | – | 16.2 | –
UUUUAGCAAGCGAGUAUUAACAUGAGGAUCACCCAUGUGCAUCCAGUAUUACUUUUAGAUCAAGCUCGUCUUAUAUA [JR_STOV1_v2_Sub082] (Eterna round: R97, puzzle: Sensor, turn-off variant 1) | 199 | 285 | – | –
GGUACUAACACGAGAGUGUUAGUACAAUAAGCUUGUGUUACAUGAGGAUCACCCAUGUCCUCAUAAGCUCGUCUUAU [Mat - Sensor v3 - Turn-off var 2 - D57] (puzzle: Sensor v3, turn-off variant 2) | – | – | 30.8 | apparent KD of MS2 coat protein [3]: 107 nM; apparent KD of MS2 coat protein [4]: 124 nM
ACAUGUCAUCGAGGAUAUUGCACACAUGAGGAUCACCCAUGUAUACGGUUGCUCUUGCGUGAGUUCGAGAAGGCGAUGUACAUU [Ex NG2 #86] (Eterna round: R96, puzzle: Exclusion NG 2) | 109 | 313 | – | apparent KD of MS2 coat protein [2]: 198 nM
UCGGCGCGAGGAUAUACGUUUGCGCGUUUUCGUUUGCGCGUACAUGAGGAUCACCCAUGUAGAAGGCGCGCGGC [Apr-15 SS2-13] (puzzle: Exclusion 2) | – | – | 11.5 | –
UGAGAGUGAGGAUAUACGUCGCUGGUCCAGAUGGACGCAUGACAUGAGGAUCACCCAUGUAGAAGGCAUUUCCC [Enxela Mod 8 - Jieux - Exclusion 2] (Eterna round: R97, puzzle: Exclusion 2) | 61.9 | 28.4 | – | –
AGGAGACAUGAGGAUCACCCAUGUGAGGAUAUCGAUGUUACGUGGAUAACCACUUCGUUGAGAAGGCACGCUUC [Eternabot (L2) Solution 55] (Eterna round: R97, puzzle: Exclusion 1) | 43 | 38.6 | – | –
GGCCUACAUGAGGAUCACCCAUGUAAGGAUAUCAAGUCGGGCUCCAAGGAAGCCCAUAUGAGAAGGUAUUUGGG [Eternabot (L2) Solution 32] (Eterna round: R97, puzzle: Exclusion 1) | 116 | 25.3 | – | –
GUAAUGUGAGGAUAUGGUAAAGAUAAGAUGAUGAAAGAACUCCAGAAGGCACAUGAGGAUCACCCAUGUAGAUG [Mat - Exclusion 4 - Mod of JL - D27] (puzzle: Exclusion 4) | – | – | 26.1 | –
CCGGAACAUGAGGAUCACCCAUGUCAGGAUAUCCCUAAAUCGUCGAUAGACGAUAAAAGGAGAAGGGACACCGG [Mat - Exclusion 1 - Eli Mod - D26] (Eterna round: R97, puzzle: Exclusion 1) | 19.3 | 16.3 | – | –
AAUUAUUGAUGAGGAUAUUGUGGUGAAACACGACAAGAAGGCAUUAUACACAUGAGGAUCACCCAUGUGAGCCUGAUGCAUAUA [Ex NG1 #59] (Eterna round: R96, puzzle: Exclusion NG 1) | – | – | – | apparent KD of MS2 coat protein [2]: 12.4 nM
CCGCGUACAGGAUAUCCAUCUGGAUCAGACAAGAUCCUGAUGGAGAAGGGACAUGAGGAUCACCCAUGUUGCGG [Mat - Exclusion 4 - Eli Mod - D54] (Eterna round: R97, puzzle: Exclusion 4) | 19 | 19.3 | – | –
AACAGUAGAGGAUAUACACGAACAAACAUGAGGAUCACCCAUGUGAAACCGUGCUGUCCGGUAGAAGGCUACUAUA [Zavetiaton] (Eterna round: R97, puzzle: Exclusion 5) | 40.6 | 17.4 | – | –
